Reference: paper PMC9482650, “Quantitative fragmentomics allow affinity mapping of interactomes” (Nature Communications, 2022)

Experiments:
Assay in all cases: holdup assay
Design in all cases: key: below the threshold = too weak to quantify, mostly under pKd 3.1 to 4
Details in all cases: plain residues with an end cap or a label only (N-terminal biotin on a linker: ado-ado)
[1] = target: Inadl_4, Q8NI35
[2] = target: T1, LNX2_2, Q8N448
T1 sequence (Q8N448 334-432, limits assumed, looked up): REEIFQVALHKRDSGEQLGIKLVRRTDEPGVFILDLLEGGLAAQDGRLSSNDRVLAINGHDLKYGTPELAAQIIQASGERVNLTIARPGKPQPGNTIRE

[3] = target: PTPN3, P26045
[4] = target: LIMK2, P53671
[5] = target: SCRIB_2, Q14160
[6] = target: TJP2_1, Q9UDY2
[7] = target: T2, LNX2_3, Q8N448
T2 sequence (Q8N448 463-564, limits assumed, looked up): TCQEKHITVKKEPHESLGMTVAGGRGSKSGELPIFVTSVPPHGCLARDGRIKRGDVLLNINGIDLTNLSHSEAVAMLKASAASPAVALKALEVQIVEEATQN

[8] = target: FRMPD3, Q5JV73
[9] = target: T3, NHERF3_1, Q5T2W1
T3 sequence (Q5T2W1 4-100, limits assumed, looked up): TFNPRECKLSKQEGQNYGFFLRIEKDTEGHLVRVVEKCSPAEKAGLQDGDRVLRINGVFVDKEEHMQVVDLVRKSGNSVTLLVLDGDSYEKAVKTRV

[10] = target: T4, MPP2, Q14168
T4 sequence (Q14168 180-250, limits assumed, looked up): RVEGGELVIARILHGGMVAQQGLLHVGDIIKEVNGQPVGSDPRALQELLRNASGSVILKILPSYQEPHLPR

[11] = target: MAGI2_3, Q86UL8
[12] = target: GRIP2_6, Q9C0E4
[13] = target: SCRIB_3, Q14160
[14] = target: T5, LIN7C, Q9NUP9
T5 sequence (Q9NUP9 88-185, limits assumed, looked up): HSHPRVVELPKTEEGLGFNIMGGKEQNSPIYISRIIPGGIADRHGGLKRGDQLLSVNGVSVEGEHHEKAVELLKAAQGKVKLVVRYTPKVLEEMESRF

[15] = target: T6, GRIP1_7, Q9Y3R0
T6 sequence (Q9Y3R0 999-1096, limits assumed, looked up): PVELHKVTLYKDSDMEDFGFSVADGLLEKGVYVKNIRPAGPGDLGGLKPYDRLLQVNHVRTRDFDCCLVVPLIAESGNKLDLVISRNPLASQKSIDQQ

[16] = target: NHERF4_1, Q86UT5-2
[17] = target: T7, GRIP1_5, Q9Y3R0
T7 sequence (Q9Y3R0 568-668, limits assumed, looked up): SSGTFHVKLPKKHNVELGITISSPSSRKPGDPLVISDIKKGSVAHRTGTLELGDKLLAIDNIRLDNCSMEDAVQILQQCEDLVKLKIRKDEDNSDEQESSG

[18] = target: LNX1_1, Q8TBB1
[19] = target: T8, DFNB31_2, Q9P202
T8 sequence (Q9P202 274-371, limits assumed, looked up): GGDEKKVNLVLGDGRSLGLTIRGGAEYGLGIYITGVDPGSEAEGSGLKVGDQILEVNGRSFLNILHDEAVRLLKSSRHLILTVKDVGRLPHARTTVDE

[20] = target: DLG1_1, Q12959
[21] = target: IL16_3, Q14005
[22] = target: T9, DLG3_3, Q92796
T9 sequence (Q92796 374-475, limits assumed, looked up): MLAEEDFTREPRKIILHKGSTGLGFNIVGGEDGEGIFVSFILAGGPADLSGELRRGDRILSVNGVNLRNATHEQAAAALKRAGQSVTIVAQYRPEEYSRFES

[23] = target: T10, PTPN13_1, Q12923
T10 sequence (Q12923 1088-1188, limits assumed, looked up): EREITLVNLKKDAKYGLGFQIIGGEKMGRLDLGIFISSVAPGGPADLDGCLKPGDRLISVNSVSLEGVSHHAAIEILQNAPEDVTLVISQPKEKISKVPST

[24] = target: MAGI1_2, Q96QZ7
[25] = target: T11, DFNB31_3, Q9P202
T11 sequence (Q9P202 811-907, limits assumed, looked up): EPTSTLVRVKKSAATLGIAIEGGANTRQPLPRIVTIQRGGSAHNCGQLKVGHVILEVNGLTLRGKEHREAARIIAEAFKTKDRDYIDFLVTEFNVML

[26] = target: T12, DVL3, Q92997
T12 sequence (Q92997 244-331, limits assumed, looked up): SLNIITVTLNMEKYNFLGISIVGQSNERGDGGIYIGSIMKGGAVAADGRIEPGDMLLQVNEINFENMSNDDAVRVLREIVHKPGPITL

SCRIB_3, Q14160, sequence (Q14160 999-1103): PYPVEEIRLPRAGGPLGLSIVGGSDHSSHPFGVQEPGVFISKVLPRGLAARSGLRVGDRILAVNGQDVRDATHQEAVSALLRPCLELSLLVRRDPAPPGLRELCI
NHERF4_1, Q86UT5-2, sequence (Q86UT5 other isoform, or with tags, fused parts or gaps): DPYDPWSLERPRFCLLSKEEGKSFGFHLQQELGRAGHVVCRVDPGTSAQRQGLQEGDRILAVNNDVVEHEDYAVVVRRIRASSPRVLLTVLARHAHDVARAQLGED
LNX1_1, Q8TBB1, sequence (Q8TBB1 261-371): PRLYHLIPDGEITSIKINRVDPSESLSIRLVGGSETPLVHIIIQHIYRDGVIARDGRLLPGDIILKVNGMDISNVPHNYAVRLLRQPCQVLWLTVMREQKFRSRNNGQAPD
LIMK2, P53671, sequence (P53671 143-248): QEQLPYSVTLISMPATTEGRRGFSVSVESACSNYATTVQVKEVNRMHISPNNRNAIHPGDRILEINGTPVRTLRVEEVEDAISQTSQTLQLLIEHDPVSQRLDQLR
MAGI1_2, Q96QZ7, sequence (Q96QZ7 456-580): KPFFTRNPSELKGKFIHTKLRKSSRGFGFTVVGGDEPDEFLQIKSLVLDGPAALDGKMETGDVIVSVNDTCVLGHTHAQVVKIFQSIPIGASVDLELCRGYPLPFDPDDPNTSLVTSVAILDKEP
Inadl_4, Q8NI35, sequence (Q8NI35 547-651): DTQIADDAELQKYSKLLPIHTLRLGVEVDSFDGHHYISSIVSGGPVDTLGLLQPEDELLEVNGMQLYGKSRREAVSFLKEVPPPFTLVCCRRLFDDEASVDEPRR
MAGI2_3, Q86UL8, sequence (Q86UL8 600-682): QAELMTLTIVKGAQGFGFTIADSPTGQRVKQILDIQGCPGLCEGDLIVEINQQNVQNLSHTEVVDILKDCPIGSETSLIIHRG
IL16_3, Q14005, sequence (Q14005 1107-1207): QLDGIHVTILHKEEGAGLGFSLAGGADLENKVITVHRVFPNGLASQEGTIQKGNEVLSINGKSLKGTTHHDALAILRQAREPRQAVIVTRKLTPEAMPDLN
SCRIB_2, Q14160, sequence (Q14160 857-960): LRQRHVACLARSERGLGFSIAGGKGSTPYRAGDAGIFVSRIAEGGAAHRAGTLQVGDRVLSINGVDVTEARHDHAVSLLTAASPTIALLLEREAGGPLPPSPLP
PTPN3, P26045, sequence (P26045 505-587): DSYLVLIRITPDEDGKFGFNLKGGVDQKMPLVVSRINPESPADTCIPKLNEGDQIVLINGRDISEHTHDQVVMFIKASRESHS
TJP2_1, Q9UDY2, sequence (Q9UDY2 24-128): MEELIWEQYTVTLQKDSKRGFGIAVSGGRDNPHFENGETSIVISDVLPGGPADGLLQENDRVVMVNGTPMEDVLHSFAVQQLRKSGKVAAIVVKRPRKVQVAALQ
FRMPD3, Q5JV73, sequence (Q5JV73 12-100): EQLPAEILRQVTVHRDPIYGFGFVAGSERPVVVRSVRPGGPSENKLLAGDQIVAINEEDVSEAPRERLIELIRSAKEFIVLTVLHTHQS
GRIP2_6, Q9C0E4, sequence (Q9C0E4 648-740): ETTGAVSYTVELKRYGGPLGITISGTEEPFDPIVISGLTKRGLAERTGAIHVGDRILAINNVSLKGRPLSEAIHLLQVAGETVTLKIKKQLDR

Binder: STKRKLASAV [NCF1, P14598]
- pKd [1]: below the threshold
- pKd [2]: below the threshold
- pKd [3]: 3.95
- pKd [4]: below the threshold
- pKd [5]: below the threshold
- pKd [6]: below the threshold
- pKd [7]: below the threshold
- pKd [8]: below the threshold
- pKd [9]: below the threshold
- pKd [10]: below the threshold
- pKd [11]: below the threshold
- pKd [12]: below the threshold
- pKd [13]: 3.55
- pKd [14]: below the threshold
- pKd [15]: below the threshold
- pKd [16]: below the threshold
- pKd [17]: below the threshold
- pKd [18]: below the threshold
- pKd [19]: below the threshold
- pKd [20]: 3.68
- pKd [21]: below the threshold
- pKd [22]: below the threshold
- pKd [23]: below the threshold
- pKd [24]: 5.08
- pKd [25]: 3.85
- pKd [26]: below the threshold

Binder: TNSRHGETTV [FZD2, Q14332]
- pKd [1]: below the threshold
- pKd [2]: 4.83
- pKd [3]: 4.61
- pKd [4]: below the threshold
- pKd [5]: 4.42
- pKd [6]: below the threshold
- pKd [7]: below the threshold
- pKd [8]: below the threshold
- pKd [9]: below the threshold
- pKd [10]: below the threshold
- pKd [11]: 3.53
- pKd [12]: below the threshold
- pKd [13]: 4.62
- pKd [14]: 4.6
- pKd [15]: below the threshold
- pKd [16]: below the threshold
- pKd [17]: below the threshold
- pKd [18]: below the threshold
- pKd [19]: below the threshold
- pKd [20]: 4.76
- pKd [21]: below the threshold
- pKd [22]: 4.24
- pKd [23]: below the threshold
- pKd [24]: 4.2
- pKd [25]: below the threshold
- pKd [26]: below the threshold

Binder: ARESQKVSHV [FAM110B, Q8TC76]
- pKd [1]: below the threshold
- pKd [2]: 4
- pKd [3]: 4.51
- pKd [4]: below the threshold
- pKd [5]: below the threshold
- pKd [6]: 3.87
- pKd [7]: below the threshold
- pKd [8]: below the threshold
- pKd [9]: below the threshold
- pKd [10]: below the threshold
- pKd [11]: 4.25
- pKd [12]: below the threshold
- pKd [13]: 4.47
- pKd [14]: below the threshold
- pKd [15]: below the threshold
- pKd [16]: 3.74
- pKd [17]: below the threshold
- pKd [18]: 3.97
- pKd [19]: 3.9
- pKd [20]: 3.95
- pKd [21]: below the threshold
- pKd [22]: below the threshold
- pKd [23]: below the threshold
- pKd [24]: 4.09
- pKd [25]: below the threshold
- pKd [26]: below the threshold

Binder: SPDRDRESIV [SCN5A, Q14524]
- pKd [1]: below the threshold
- pKd [2]: 4.44
- pKd [3]: 4.78
- pKd [4]: below the threshold
- pKd [5]: below the threshold
- pKd [6]: below the threshold
- pKd [7]: below the threshold
- pKd [8]: below the threshold
- pKd [9]: 3.72
- pKd [10]: below the threshold
- pKd [11]: 4.02
- pKd [12]: below the threshold
- pKd [13]: 3.86
- pKd [14]: 4.12
- pKd [15]: below the threshold
- pKd [16]: below the threshold
- pKd [17]: below the threshold
- pKd [18]: 3.88
- pKd [19]: below the threshold
- pKd [20]: 4.28
- pKd [21]: below the threshold
- pKd [22]: below the threshold
- pKd [23]: below the threshold
- pKd [24]: 3.51
- pKd [25]: 4.06
- pKd [26]: below the threshold

Binder: PPGKHLVTEV [KCNA7, Q96RP8]
- pKd [1]: below the threshold
- pKd [2]: 4.91
- pKd [3]: 4.74
- pKd [4]: below the threshold
- pKd [5]: 4.08
- pKd [6]: 3.6
- pKd [7]: below the threshold
- pKd [8]: below the threshold
- pKd [9]: below the threshold
- pKd [10]: below the threshold
- pKd [11]: 4.22
- pKd [12]: below the threshold
- pKd [13]: 4.56
- pKd [14]: below the threshold
- pKd [15]: below the threshold
- pKd [16]: 3.94
- pKd [17]: below the threshold
- pKd [18]: 4.22
- pKd [19]: below the threshold
- pKd [20]: 4.76
- pKd [21]: below the threshold
- pKd [22]: 4.33
- pKd [23]: below the threshold
- pKd [24]: 4.24
- pKd [25]: 4.01
- pKd [26]: below the threshold
